Measurements: EP1198239B1 (Cancer Research Ventures Limited, dated 2007)

T1: Kid (Escherichia coli plasmid R1, UniProt P13976 24-133)
T1 construct: expressed from p424Met25Kid in yeast and from pNATHA2 in HeLa cells; also called ParD kid toxin; killing determinant
T1 sequence (looked up): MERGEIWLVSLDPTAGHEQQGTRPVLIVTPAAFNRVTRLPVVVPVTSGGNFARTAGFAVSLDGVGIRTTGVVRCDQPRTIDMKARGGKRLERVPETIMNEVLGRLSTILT


Columns and labels:
[1] = target: Kid (Escherichia coli plasmid R1) (UniProt P13976); assay: cell-based or functional assay
Kid = target: T1, Kid; assay: co-retention of untagged Kid with HisKis on Ni2+-activated chelating sepharose; Kid released only by denaturation (eluted at 5.5 M guanidinium chloride)

Row | Molecule | dead cells (trypan blue), all other samples (incl. kis+/kid+ HeLa cells without Doxycyclin, Kis expressed) [1] [%] | dead cells (trypan blue), kis+/kid+ HeLa cells in presence of Doxycyclin, day five [1] [%] | dead cells (trypan blue), kis+/kid+ HeLa cells in presence of Doxycyclin, day ten [1] [%] | binding result (Kid)
1 | Kis (from UniProt P13975 1-85) | < 9 | 32 | 65 | –
2 | HisKis (other, Escherichia coli plasmid R1, UniProt P13975 1-85, looked up, Co-expressed with Kid from pRG-HisKisKid in E. coli C600 or TG1; also called His-tagged Kis; ParD kis antitoxin with N-terminal His tag; not shown: N-terminal His tag and linker from vector pET15b, subcloned into pRG-recA-NHis) MHTTRLKRVGGSVMLTVPPALLNALSLGTDNEVGMVIDNGRLIVEPYRRPQYSLAELLAQCDPNAEISAEEREWLDAPATGQEEI | – | – | – | binds
